Publication PMC8258697 (The Journal of Biological Chemistry, 2021)
No end group written: not given here. *: point of attachment. Biotin = O=C1N[C@H]2[C@H](CS[C@H]2CCCCC(=O)*)N1

T1: label-free PPARγ LBD (human, UniProt P37231-1 234-505)
T1 construct: PPARγ isoform 2 LBD, human, UniProt P37231-1, residues 234-505; also called PPARγ LBD without sGFP-tag; PPARγ LBD devoid of any label; source: E. coli T7 express, coexpressed with GroEL/ES, purified (Ni IMAC, TEV, reverse IMAC, SEC); not shown: His10, N-terminal, cleaved
T1 sequence (looked up): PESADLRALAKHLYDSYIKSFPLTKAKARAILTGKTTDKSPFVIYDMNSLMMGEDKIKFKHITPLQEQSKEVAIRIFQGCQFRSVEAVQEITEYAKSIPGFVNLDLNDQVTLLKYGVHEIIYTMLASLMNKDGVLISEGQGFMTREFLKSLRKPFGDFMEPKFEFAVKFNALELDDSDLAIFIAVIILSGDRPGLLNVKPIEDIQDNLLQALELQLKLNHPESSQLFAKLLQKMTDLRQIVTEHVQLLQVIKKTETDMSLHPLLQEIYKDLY

T2: sGFP-PPARγ LBD (human, UniProt P37231-1 234-505)
T2 construct: PPARγ isoform 2 LBD, human, UniProt P37231-1, residues 234-505; also called PPARγ coupled to sGFP; source: E. coli T7 express, coexpressed with GroEL/ES, purified (Ni IMAC, TEV, reverse IMAC, SEC); not shown: His10, N-terminal, cleaved; sGFP, N-terminal, kept
T2 sequence (looked up): T1 sequence (looked up)

B1: biotinylated CBP-1 cofactor peptide (CREB-binding protein coactivator motif 1) (peptide)
peptide: Biotin-NLVPDAASKHKQLSELLRGGSGS
notes: coupled to Tb-streptavidin in the assay; also called CBP-1 peptide; CBP-derived peptide; source: bought: Eurogentec GmbH
B2: free RXRα total mutant LBD (unlabeled) (domain or fragment, human, UniProt P19793-1 223-462, looked up)
chain: TSSANEDMPVERILEAELAVEPKTETYVEANMGLNPSSPNDPVTNICQAADKQLFTLTEWAERIPHFSELPLDDQTILLRAGWNELLIASFSHRSIAVKDGILLATGLHVHRNSAHSAGVGAIFDRVLTELVSKMRDMQMDKTELGCLRAIVLFNPDSKGLSNPAEVEALREKVYASLEAYCKHKYPEQPGRFAKLLLRLPALRSIGLKCLEHLFFFKLIGDTPIDTYLMRMLEAPHQMT
notes: retinoid X receptor alpha (RXRα) LBD, human, residues 223-462 (pMal construct), five AF-2 mutations; also called unlabeled recruitment-incapable RXRα LBD (total mutant); unlabeled mutant RXRα LBD; source: E. coli T7 express, coexpressed with GroEL/ES, purified (Ni IMAC, MBP-TEV, amylose flow through, SEC); not shown: MBP, N-terminal, cleaved; His8, N-terminal, cleaved
B3: sGFP-PPARγ LBD:RXRα total mutant LBD (unlabeled) heterodimer (complex, human)
chain 1: T1 sequence (looked up)
chain 2: B2 chain
notes: PPARγ isoform 2 LBD, human, UniProt P37231-1, residues 234-505; RXRα LBD, human, residues 223-462, five AF-2 mutations; also called LBD:LBD heterodimer with RXRα; source: mixed from the purified E. coli proteins (100 nM sGFP-PPARγ LBD, RXRα total mutant LBD titrated); not shown: His10, N-terminal, cleaved; sGFP, N-terminal, kept; MBP, N-terminal, cleaved; His8, N-terminal, cleaved

Tests used:
Conditions in all cases: both partners purified
label-free PPARγ LBD = biological target: T1, label-free PPARγ LBD; test: AlphaScreen or HTRF; heterodimer coactivator recruitment; 100 nM label-free PPARγ LBD, 2 μM sGFP-RXRα LBD total mutant, 12 nM biotinylated CBP-1 on 12 nM Tb-SA; rosiglitazone titrated (also with 50 μM SR11237); 0.1% CHAPS, 1% DMSO, RT
sGFP-PPARγ LBD = biological target: T2, sGFP-PPARγ LBD; test: AlphaScreen or HTRF; unlabeled RXRα total mutant LBD titrated (up to 8 μM) against 100 nM sGFP-PPARγ LBD, 12 nM Tb-SA, 12 nM biotinylated CBP-1; no ligand (or SR11237 at ≤1 nM)
[1] = biological target: B1; test: as above

Binder: B1
- binding result (label-free PPARγ LBD): binds

Binder: B2
- binding result (sGFP-PPARγ LBD): binds

Binder: B3
- CBP-1 recruitment relative to that seen with rosiglitazone (%) [1]: ≤ 5%
